Measured values reported in publication PMC7105497.

Target: human EWI-2 wild type with FLAG-tag (FSEC assay) (human) (UniProt Q969P0)
Assay: SEC; fluorescence-detection size-exclusion chromatography (FSEC): GFP-tagged CD9 and FLAG-tagged EWI-2 co-expressed in HEK293T cells, solubilised in 1% digitonin, supernatant run on Superose 6 Increase in 10 mM HEPES pH 7.0, 150 mM NaCl, 0.1% digitonin; GFP fluorescence monitored

Chain of UniProt Q969P0 (Q969P0 28-613): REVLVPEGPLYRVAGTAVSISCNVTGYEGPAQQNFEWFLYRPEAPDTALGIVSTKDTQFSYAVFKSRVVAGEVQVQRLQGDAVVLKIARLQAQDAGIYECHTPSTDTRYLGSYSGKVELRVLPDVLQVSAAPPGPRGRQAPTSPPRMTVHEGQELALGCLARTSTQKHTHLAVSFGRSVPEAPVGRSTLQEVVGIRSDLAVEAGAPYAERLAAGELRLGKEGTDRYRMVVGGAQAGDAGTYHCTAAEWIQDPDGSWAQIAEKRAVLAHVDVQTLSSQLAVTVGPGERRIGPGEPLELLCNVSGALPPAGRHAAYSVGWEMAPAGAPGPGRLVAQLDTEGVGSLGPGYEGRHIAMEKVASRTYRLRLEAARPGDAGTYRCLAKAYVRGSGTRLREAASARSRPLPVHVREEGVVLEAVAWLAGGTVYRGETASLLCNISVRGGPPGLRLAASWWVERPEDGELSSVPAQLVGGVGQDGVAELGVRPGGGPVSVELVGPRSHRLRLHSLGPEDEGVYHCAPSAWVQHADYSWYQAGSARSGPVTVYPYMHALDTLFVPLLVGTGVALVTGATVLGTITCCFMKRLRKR

**Q.** With “CD9-CD53LEL (CD9 with its LEL region exchanged with that of CD53)” as the substance, how does the stoichiometry N (EWI-2 per CD9) read?
**A.** 2
